Our source for the Kd and percent reduction of binding by 44 mM α-2,3-sialyl (1-thioethyl)galactose values is article PMC3131266.

Experiment [1] addresses glycocalicin (Homo sapiens) (UniProt P07359). As to conditions: cited from earlier work.
The target in experiment [2] is glycocalicin, the carbohydrate-rich extracellular portion of the platelet membrane glycoprotein GPIbα (human) (UniProt P07359). Nature of the experiment: binding of whole bacteria to immobilised protein in microtiter wells; as a1, bacteria diluted into DPBS containing 44 mM α-2,3-sialyl (1-thioethyl)galactose, pH 7.5, compared with DPBS alone.
Sequence of glycocalicin, the carbohydrate-rich extracellular portion of the platelet membrane glycoprotein GPIbα (human) (P07359 17-531): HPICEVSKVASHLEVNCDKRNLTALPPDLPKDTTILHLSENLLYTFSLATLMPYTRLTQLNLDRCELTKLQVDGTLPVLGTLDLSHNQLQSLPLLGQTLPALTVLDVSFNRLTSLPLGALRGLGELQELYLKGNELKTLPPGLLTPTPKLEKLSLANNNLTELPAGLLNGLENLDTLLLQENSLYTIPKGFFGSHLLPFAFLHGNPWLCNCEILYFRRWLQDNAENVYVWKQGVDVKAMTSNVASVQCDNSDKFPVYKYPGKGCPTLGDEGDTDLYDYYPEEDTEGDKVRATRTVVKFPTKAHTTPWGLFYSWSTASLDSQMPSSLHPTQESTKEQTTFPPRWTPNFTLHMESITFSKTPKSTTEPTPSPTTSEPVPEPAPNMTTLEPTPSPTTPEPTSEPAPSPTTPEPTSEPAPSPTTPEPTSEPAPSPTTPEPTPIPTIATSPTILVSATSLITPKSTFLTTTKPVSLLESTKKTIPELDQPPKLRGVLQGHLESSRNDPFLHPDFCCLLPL

Usually Kd stands for the equilibrium constant for the complex coming apart.

Sequence of GspB of Streptococcus gordonii strain M99, wild type, on the bacterial cell surface, Q939N5 86-3041 (natural protein; carries sialyl-T antigen carbohydrates (sites not stated)) (Q939N5 86-3041): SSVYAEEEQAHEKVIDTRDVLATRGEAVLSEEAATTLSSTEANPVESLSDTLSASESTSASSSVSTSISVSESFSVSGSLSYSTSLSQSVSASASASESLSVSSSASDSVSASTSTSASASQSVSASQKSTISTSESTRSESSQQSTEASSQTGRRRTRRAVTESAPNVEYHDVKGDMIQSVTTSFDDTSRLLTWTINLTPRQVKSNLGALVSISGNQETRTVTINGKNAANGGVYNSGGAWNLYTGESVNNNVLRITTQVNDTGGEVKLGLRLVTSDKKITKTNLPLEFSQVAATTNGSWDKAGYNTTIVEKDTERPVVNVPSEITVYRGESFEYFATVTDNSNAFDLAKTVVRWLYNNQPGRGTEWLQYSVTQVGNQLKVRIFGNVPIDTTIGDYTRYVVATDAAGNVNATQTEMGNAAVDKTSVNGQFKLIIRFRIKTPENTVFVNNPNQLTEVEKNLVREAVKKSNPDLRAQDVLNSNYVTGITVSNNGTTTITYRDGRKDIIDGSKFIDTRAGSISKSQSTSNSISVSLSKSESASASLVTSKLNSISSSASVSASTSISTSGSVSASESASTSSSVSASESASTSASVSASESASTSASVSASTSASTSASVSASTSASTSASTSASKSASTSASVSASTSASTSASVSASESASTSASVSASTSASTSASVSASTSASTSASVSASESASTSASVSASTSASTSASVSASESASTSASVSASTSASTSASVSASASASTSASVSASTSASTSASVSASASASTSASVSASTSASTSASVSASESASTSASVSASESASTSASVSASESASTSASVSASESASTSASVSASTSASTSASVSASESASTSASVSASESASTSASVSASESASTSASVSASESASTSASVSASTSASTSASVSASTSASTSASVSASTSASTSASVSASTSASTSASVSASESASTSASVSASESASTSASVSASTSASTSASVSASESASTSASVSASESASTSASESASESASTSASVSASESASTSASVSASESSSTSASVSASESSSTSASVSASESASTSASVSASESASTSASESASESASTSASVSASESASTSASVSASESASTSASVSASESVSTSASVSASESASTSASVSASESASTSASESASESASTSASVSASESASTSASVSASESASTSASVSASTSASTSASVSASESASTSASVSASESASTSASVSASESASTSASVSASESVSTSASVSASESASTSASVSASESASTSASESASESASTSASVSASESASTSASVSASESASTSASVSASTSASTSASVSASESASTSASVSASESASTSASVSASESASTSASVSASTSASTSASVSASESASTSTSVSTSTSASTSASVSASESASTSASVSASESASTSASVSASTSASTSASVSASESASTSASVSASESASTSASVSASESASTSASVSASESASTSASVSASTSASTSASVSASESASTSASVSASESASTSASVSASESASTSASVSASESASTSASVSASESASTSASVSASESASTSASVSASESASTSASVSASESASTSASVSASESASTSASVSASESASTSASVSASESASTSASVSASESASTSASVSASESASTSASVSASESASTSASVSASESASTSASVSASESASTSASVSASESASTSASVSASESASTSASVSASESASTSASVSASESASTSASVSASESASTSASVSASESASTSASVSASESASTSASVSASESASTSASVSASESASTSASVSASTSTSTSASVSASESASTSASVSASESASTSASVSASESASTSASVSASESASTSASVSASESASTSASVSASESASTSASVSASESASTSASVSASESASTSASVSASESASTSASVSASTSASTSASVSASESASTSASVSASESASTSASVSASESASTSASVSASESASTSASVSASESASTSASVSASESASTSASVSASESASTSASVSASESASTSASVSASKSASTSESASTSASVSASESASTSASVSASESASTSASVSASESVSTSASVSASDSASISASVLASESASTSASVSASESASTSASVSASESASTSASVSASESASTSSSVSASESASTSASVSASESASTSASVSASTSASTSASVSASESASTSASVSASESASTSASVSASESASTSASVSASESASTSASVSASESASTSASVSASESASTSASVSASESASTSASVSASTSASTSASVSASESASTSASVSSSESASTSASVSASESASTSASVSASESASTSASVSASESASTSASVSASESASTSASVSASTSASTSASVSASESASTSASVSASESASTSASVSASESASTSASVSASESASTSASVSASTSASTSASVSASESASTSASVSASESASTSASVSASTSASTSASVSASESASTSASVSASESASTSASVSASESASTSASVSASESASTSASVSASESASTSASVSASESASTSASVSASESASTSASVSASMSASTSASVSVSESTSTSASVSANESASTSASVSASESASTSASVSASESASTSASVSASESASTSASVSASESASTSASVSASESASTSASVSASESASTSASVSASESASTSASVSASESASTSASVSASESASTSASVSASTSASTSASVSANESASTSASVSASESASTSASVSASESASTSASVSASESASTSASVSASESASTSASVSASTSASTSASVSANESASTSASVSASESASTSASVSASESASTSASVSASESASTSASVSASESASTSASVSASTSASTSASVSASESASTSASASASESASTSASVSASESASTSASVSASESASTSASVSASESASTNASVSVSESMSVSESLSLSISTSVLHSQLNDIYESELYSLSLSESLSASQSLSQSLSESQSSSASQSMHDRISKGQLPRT
Sequence of glycocalicin (Homo sapiens) (P07359 17-506): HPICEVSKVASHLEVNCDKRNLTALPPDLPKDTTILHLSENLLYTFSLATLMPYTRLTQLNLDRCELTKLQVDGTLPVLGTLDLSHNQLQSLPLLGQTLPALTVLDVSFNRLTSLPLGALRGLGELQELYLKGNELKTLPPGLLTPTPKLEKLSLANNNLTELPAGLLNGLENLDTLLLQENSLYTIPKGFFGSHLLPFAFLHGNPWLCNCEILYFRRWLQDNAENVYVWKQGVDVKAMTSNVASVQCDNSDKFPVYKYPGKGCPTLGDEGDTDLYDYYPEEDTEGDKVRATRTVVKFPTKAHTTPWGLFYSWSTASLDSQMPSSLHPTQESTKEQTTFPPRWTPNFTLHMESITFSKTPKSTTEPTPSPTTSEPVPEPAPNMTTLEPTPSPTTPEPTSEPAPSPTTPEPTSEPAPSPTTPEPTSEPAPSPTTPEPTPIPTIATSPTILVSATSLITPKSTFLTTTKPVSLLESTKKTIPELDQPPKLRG

Consider GspB (from UniProt Q939N5), for which the Kd in experiment [1] is 23.8 nM.

In turn, “GspB of Streptococcus gordonii strain M99, wild type, on the bacterial cell surface, Q939N5 86-3041 (natural protein; carries sialyl-T antigen carbohydrates (sites not stated))” registered a percent reduction of binding by 44 mM α-2,3-sialyl (1-thioethyl)galactose in experiment [2] of 90%.
